According to PMC7074997, “Biodiesel and flavor compound production using a novel promiscuous cold-adapted SGNH-type lipase (HaSGNH1) from the psychrophilic bacterium Halocynthiibacter arcticus” (Biotechnology for Biofuels, 2020):

B1: HaSGNH1 (Falsihalocynthiibacter arcticus) (protein)
chain: MSARVQAETVVIAALGDSLTQGYGLPQEDGLVAQLQGWLDENNHDIRLINAGVSGDTTAGGRSRIEWTLTPDVDAVIVELGGNDMMRGIAPSDSRKNLTEILEILQSRDLPVLLVGLPSANNFGPEFKAEFDDMFPALSTDFETLLYPDFFTSFRTKLNDTSALTTYMQDDAIHPNAKGVAAIVEDFGPLVVELAQQTQE
notes: ORF cloned from genomic DNA (primer starts ATG AGT GCT CGC GTT: MSARV), pET-21a, N-terminal His6 tag, E. coli BL21(DE3)
B2: HaSGNH1 (Falsihalocynthiibacter arcticus; R87L) (protein)
chain: MSARVQAETVVIAALGDSLTQGYGLPQEDGLVAQLQGWLDENNHDIRLINAGVSGDTTAGGRSRIEWTLTPDVDAVIVELGGNDMMLGIAPSDSRKNLTEILEILQSRDLPVLLVGLPSANNFGPEFKAEFDDMFPALSTDFETLLYPDFFTSFRTKLNDTSALTTYMQDDAIHPNAKGVAAIVEDFGPLVVELAQQTQE
notes: as for B1
B3: HaSGNH1 (Falsihalocynthiibacter arcticus; M86R) (protein)
chain: MSARVQAETVVIAALGDSLTQGYGLPQEDGLVAQLQGWLDENNHDIRLINAGVSGDTTAGGRSRIEWTLTPDVDAVIVELGGNDMRRGIAPSDSRKNLTEILEILQSRDLPVLLVGLPSANNFGPEFKAEFDDMFPALSTDFETLLYPDFFTSFRTKLNDTSALTTYMQDDAIHPNAKGVAAIVEDFGPLVVELAQQTQE
notes: as for B1
B4: HaSGNH1 (Falsihalocynthiibacter arcticus; M86E) (protein)
chain: MSARVQAETVVIAALGDSLTQGYGLPQEDGLVAQLQGWLDENNHDIRLINAGVSGDTTAGGRSRIEWTLTPDVDAVIVELGGNDMERGIAPSDSRKNLTEILEILQSRDLPVLLVGLPSANNFGPEFKAEFDDMFPALSTDFETLLYPDFFTSFRTKLNDTSALTTYMQDDAIHPNAKGVAAIVEDFGPLVVELAQQTQE
notes: as for B1

What was measured:
Test in all cases: purified protein
Type in all cases: biochemical, Falsihalocynthiibacter arcticus
Conditions in all cases: free enzyme, 20 mM Tris-HCl pH 8.0, 25 °C (standard assay)
purified protein [1] = substrate: CCCC(=O)Oc1ccc([N+](=O)[O-])cc1
purified protein [2] = substrate: CCCCCC(=O)Oc1ccc([N+](=O)[O-])cc1
purified protein [3] = substrate: CC(=O)Oc1ccc([N+](=O)[O-])cc1

Protein | Km (purified protein [1]) | Vmax (purified protein [1]) | kcat (purified protein [1]) | kcat/Km (purified protein [1]) | Km (purified protein [2]) | Vmax (purified protein [2]) | kcat (purified protein [2]) | kcat/Km (purified protein [2]) | Km (purified protein [3]) | Vmax (purified protein [3]) | kcat (purified protein [3]) | kcat/Km (purified protein [3])
B1 | 0.80 (± 0.23) mM | 60 µM/min | 17.1 ± 1.83 s⁻¹ | 21300 M⁻¹ s⁻¹ | 0.99 (± 0.20) mM | 57.6 µM/min | 16.5 ± 1.45 s⁻¹ | 16700 M⁻¹ s⁻¹ | 0.93 (± 0.15) mM | 29.4 µM/min | 8.38 ± 0.53 s⁻¹ | 8900 M⁻¹ s⁻¹
B2 | 0.68 (± 0.10) mM | 69 µM/min | 15 ± 0.84 s⁻¹ | 22200 M⁻¹ s⁻¹ |  |  |  |  |  |  |  | 
B3 | 1.26 (± 0.17) mM | 46.8 µM/min | 5.1 ± 0.35 s⁻¹ | 4200 M⁻¹ s⁻¹ |  |  |  |  |  |  |  | 
B4 | 1.06 (± 0.23) mM | 36.6 µM/min | 4 ± 0.39 s⁻¹ | 3800 M⁻¹ s⁻¹ |  |  |  |  |  |  |  | 
